In US20040109861A1 (MYRIAD GENETICS, published 2004):

Target: T1, myc-tagged Tsg101 (residues 1-207) (human, UniProt Q99816 1-207)
T1 construct: range 1-207; Used as Drosophila S2 cell lysate, not purified; The tag is placed N-terminal from the name myc-Tsg101; also called myc-Tsg101(1-207); myc-Tsg101 (1-207)
T1 sequence: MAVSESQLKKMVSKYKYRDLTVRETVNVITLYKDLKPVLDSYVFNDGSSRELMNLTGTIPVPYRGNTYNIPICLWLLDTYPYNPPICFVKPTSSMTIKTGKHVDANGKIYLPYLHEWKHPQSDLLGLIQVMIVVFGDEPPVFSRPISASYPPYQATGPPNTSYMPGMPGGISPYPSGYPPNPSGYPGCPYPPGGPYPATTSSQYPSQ
Assay: plate competition assay, competitor of coated GST-p6 for myc-Tsg101(1-207)

B1: p6(1-14) peptide (GAGp6 peptide containing the first 14 amino acid residues) (peptide)
peptide: LQSRPEPTAPPEES
notes: also called first 14 amino acid residues of HIV GAGp6
binding result: binds
